Residue numbers refer to the chain shown, from its start.
B1: ISOP120BR5P1G4 (designed binder, not shown: small tags and cut ends)
chain: LPAPKNLVVSRVTEDSARLSWAGHYRKIRNFDSFLIQYQESEKVGEAIVLTVPGSERSYDLTGLKPGTEYTVSIYGVKFPYYYATADSNPLSAIFTT
notes: FN3 domain (Centyrin); tested as E. coli lysate
B2: ISOP120BR5P1A5 (designed binder, not shown: small tags and cut ends)
chain: B1 chain with E56K
notes: as for B1
B3: ISOP120GR5P1G3 (designed binder, not shown: small tags and cut ends)
chain: LPAPKNLVVSRVTEDSARLSWTAPDAAFDSFYIRYWEFCHSGEAIELSVPGSERSYDLTGLKPGTEYFVRIVGVKGGRVSLPLGAKFTT
notes: as for B1
B4: ISOP120BR5P1D9 (designed binder, not shown: small tags and cut ends)
chain: LPAPKNLVVSRVTEDSARLSWTINSHIFDSFLIQYQESEKVGEAIVLTVPGSERSYDLTGLKPGTEYTVSIYGVWGTKYWQAQSNPLSAIFTT
notes: as for B1
B5: ISOP120BR5P1F1 (designed binder, not shown: small tags and cut ends)
chain: LPAPKNLVVSRVTEDSARLSWTFHPTFEGFDSFLIQYQESEKVGEAIVLTVPGSERSYDLTGLKPGTEYTVSIYGVKWTVLRPWLSNPLSAIFTT
notes: as for B1
B6: ISOP120BR5P1B7 (designed binder, not shown: small tags and cut ends)
chain: LPAPKNLVVSRVTEDSARLSWGAKTRQFDSFLIQYQESEKVGEAIVLTVPGSERSYDLTGLKPGTEYTVSIYGVWWVENHFPVSNPLSAIFTT
notes: as for B1
B7: ISOP120BR5P1D2 (designed binder, not shown: small tags and cut ends)
chain: LPAPKNLVVSRVTEDSARLSWIRKHNHVKWFDSFLIQYQESEKVGEAIVLTVPGSERSYDLTGLKPGTEYTVSIYGVGFLIDTDDSNPLSAIFTT
notes: as for B1
B8: ISOP120BR5P1E4 (designed binder, not shown: small tags and cut ends)
chain: LPAPKNLVVSRVTEDSARLSWDDQFEDWFDSFLIQYQESEQVGEAIVLTVPGSERSYDLTGLKPGTEYTVSIYGVHTRDWTAWNASNPLSAIFTT
notes: as for B1
B9: ISOP120BR5P1C1 (designed binder, not shown: small tags and cut ends)
chain: LPAPKNLVVSRVTEDSARLSWVREDAYAFDSFLIQYQESEKVGEAIVLTVPGSERSYDLTGLKPGTEYTVSIYGVSSLHWVVHDSNPLSAIFTT
notes: as for B1
B10: ISOP120BR5P1H3 (designed binder, not shown: small tags and cut ends)
chain: LPAPKNLVVSRVTEDSARLSWEESRQFFDSFLIQYQESEKVGEAIVLTVPGSERSYDLTGLKPGTEYTVSIYGVVHRAWLRWNGSNPLSAIFTT
notes: as for B1
B11: ISOP120BR5P1C7 (designed binder, not shown: small tags and cut ends)
chain: LPAPKNLVVSRVTEDSARLSWNVTQKEFDSFLIQYQESEKVGEAIVLTVPGSERSYDLTGLKPGTEYTVSIYGVGNRYYTVYDSNPLSAIFTT
notes: as for B1
B12: ISOP120FR5P1E10 (designed binder, not shown: small tags and cut ends)
chain: LPAPKNLVVSRVTEDSARLSWTAPDAAFDSFLIHYTEQPSKGEAIVLTVPGSERSYDLTGLKPGTEYQVPIGVKGGTQSCPLSAIFTT
notes: as for B1
B13: ISOP120AR5P1B12 (designed binder, not shown: small tags and cut ends)
chain: LPAPKNLVVSRVTEDSARLSWDGDKWANFKFDSFLIQYQESEKVGEAIVLTVPGSERSYDLTGLKPGTEYTVSIYGVGLHYIVYDSNPLSAIFTT
notes: FN3 domain (Centyrin)
B14: ISOP120BR5P1G11 (designed binder, not shown: small tags and cut ends)
chain: LPAPKNLVVSRVTEDSARLSWTKRHFYTFDSFLIQYQESEKVGEAIVLTVPGSERSYYLTGLKPGTENTVSIYGVHGNHPYTDAPANPLSAIFTT
notes: as for B1
B15: ISOP120BR5P1A10 (designed binder, not shown: small tags and cut ends)
chain: LPAPKNLVVSRVTEDSARLSWTEEDITHLRFDSFLIQYQESEKVGEAIVLTVPGSERSYDLTGLKPGTEYTVSIYGVYWTWWVRWNSNPLSAIFTT
notes: as for B1
B16: ISOP120BR5P1D8 (designed binder, not shown: small tags and cut ends)
chain: LPAPKNLVVSRVTEDSARLSWKNHTQEWEFDSFLIQYQESEKVGEAIVLTVPGSERSYDLTGLKPGTEYTVSIYGVPIAWLAWTSTSNPLSAIFTT
notes: as for B1
B17: ISOP120BR5P1B9 (designed binder, not shown: small tags and cut ends)
chain: LPAPKNLVVSRVTEDSARLSWAVEFNPTKFDSFLIQYQESEKVGEAIVLTVPGSERSYDLTGLKPGTEYTVSIYGVWWFEQWYPVSNPLSAIFTT
notes: as for B1
B18: ISOP120BR5P1F2 (designed binder, not shown: small tags and cut ends)
chain: LPAPKNLVVSRVTEDSARLSWTFHPTFEGFDSFLIQYQESEKVGEAIVLTVPGSERSYDLTGLKPGTEYTVSIYGVKWYAGIGYPVSNPLSAIFTT
notes: as for B1
B19: ISOP120BR5P1E2 (designed binder, not shown: small tags and cut ends)
chain: LPAPKNLVVSRVTEDSARLSWAQELDHFDSFLIQYQESEKVGEAIVLTVPGSERSYDLTGLKPGTEYTVSIYGVYWTWWVRWNSNPLSAIFTT
notes: as for B1
B20: ISOP120GR5P1E1 (designed binder, not shown: small tags and cut ends)
chain: LPAPKNLVVSRVTEDSARLSWTAPDAAFDSFIIQYAEDSSWGEAINLHVPGSERSYDLTGLKPGTEYHVHIYGVKGGEASNPLWAWFTT
notes: as for B1
B21: ISOP120AR5P1C3 (designed binder, not shown: small tags and cut ends)
chain: LPAPKNLVVSRVTEDSARLSWSPVDADFTFDSFLIQYQESEKVGEAIVLTVPGSERSYDLTGLKPGTEYTVSIYGVGRHYTVYDSNPLSAIFTT
notes: as for B1
B22: ISOP120BR5P1C9 (designed binder, not shown: small tags and cut ends)
chain: LPAPKNLVVSRVTEDSARLSWAWNRHDFDSFLIQYQESEKVGEAIVLTVPGSERSYDLTGLKPGTEYTVSIYGVHWTVLRPFIDSNPLSAIFTT
notes: as for B1
B23: ISOP120BR5P1D3 (designed binder, not shown: small tags and cut ends)
chain: LPAPKNLVVSRVTEDSARLSWSEHPTPFATFDSFLIQYQESEKVGEAIVLTVPGSERSYDLTGLKPGTEYTVSIYGVWWVENHFPVSNPLSAIFTT
notes: as for B1
B24: ISOP120BR5P1E8 (designed binder, not shown: small tags and cut ends)
chain: LPAPKNLVVSRVTEDSARLSWNGGEYWVPRFDSFLIQYQESEKVGEAIVLTVPGSERSYDLTGLKPGTEYTVSIYGVVWLQWISWTDSNPLSAIFTT
notes: as for B1
B25: ISOP120BR5P1E6 (designed binder, not shown: small tags and cut ends)
chain: LPAPKNLVVSRVTEDSARLSWLEGANAEFDSFLIQYQESEKVGEAIVLTVPGSERSYDLTGLKPGTEYTVSIYGVHWVGPWYPVSNPLSAIFTT
notes: as for B1
B26: ISOP193ER9P1G11 (designed binder, not shown: small tags and cut ends)
chain: LPAPKNLVVSRVTEDSARLSWTAPDAAFDSFDIYYFEHPVGGEAIVLTVPGSERSYDLTGLKPGTEYLVTIYGVKGGYLSMPLSAIFTT

Molecular target: T1, recombinant biotinylated human CD137 protein (Fc-fusion protein, R&D Systems 838-4B) (human, UniProt Q07011 24-186, biotinylated (site not stated))
T1 construct: Bought Fc fusion; The ELISA used the same antigen as the panning; also called CD137-Fc; biotinylated CD137; not shown: Fc part of the bought fusion protein
Experiment: ELISA, bacterial lysate on plate-bound antigen, luminescence
Outline: (§1)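 Biotinylated CD137-Fc, an unrelated Fc-fusion protein or human serum albumin captured 1 h on streptavidin plates blocked in Starting Block T20; diluted bacterial lysate applied 1 h. Bound binders detected with HRP-conjugated anti-Centyrin antibody (PAB25) for 1 h, then POD substrate read-out.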

ELISA CD137-Fc (RLU)	Binder
580000 RLU	B1
503000 RLU	B2
1.34e+06 RLU	B3
1.22e+06 RLU	B4
542000 RLU	B5
565000 RLU	B6
361000 RLU	B7
942000 RLU	B8
438000 RLU	B9
875000 RLU	B10
306000 RLU	B11
953000 RLU	B12
864000 RLU	B13
485000 RLU	B14
573000 RLU	B15
942000 RLU	B16
358000 RLU	B17
299000 RLU	B18
882000 RLU	B19
1.02e+06 RLU	B20
927000 RLU	B21
1.27e+06 RLU	B22
1.14e+06 RLU	B23
906000 RLU	B24
779000 RLU	B25

Molecular target: T2, human serum albumin (human, UniProt P02768 25-609)
T2 construct: Negative control antigen of the screening ELISA; also called HSA
Experiment: as above
Outline: as §1

T2 sequence (P02768 25-609 limits assumed): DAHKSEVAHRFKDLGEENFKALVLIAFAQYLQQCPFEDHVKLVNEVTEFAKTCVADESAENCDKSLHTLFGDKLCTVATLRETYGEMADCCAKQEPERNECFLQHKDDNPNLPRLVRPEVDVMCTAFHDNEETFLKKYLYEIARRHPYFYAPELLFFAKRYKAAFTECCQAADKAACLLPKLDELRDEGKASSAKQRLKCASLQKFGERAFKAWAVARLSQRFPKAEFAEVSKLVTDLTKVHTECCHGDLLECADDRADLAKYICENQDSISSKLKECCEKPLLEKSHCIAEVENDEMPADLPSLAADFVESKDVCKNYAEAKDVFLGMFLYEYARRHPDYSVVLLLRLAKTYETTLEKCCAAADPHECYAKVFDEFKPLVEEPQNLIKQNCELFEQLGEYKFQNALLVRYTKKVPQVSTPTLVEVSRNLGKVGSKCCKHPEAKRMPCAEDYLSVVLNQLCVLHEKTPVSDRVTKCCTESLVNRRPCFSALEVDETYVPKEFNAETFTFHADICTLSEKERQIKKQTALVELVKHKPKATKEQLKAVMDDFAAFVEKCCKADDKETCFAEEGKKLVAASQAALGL

ELISA HSA (RLU)	Binder
400 RLU	B1
400 RLU	B2
320 RLU	B3
560 RLU	B4
480 RLU	B5
480 RLU	B6
240 RLU	B7
560 RLU	B8
480 RLU	B9
720 RLU	B10
240 RLU	B11
320 RLU	B12
480 RLU	B13
560 RLU	B14
26600 RLU	B15
320 RLU	B16
400 RLU	B17
240 RLU	B18
4960 RLU	B19
320 RLU	B20
240 RLU	B21
560 RLU	B22
400 RLU	B23
640 RLU	B24
400 RLU	B25

Molecular target: unrelated Fc-fused recombinant protein (negative control)
Experiment: as above

ELISA Fc Control (RLU)	Binder
480 RLU	B1
640 RLU	B2
320 RLU	B3
560 RLU	B4
480 RLU	B5
400 RLU	B6
720 RLU	B7
320 RLU	B8
480 RLU	B9
2000 RLU	B10
880 RLU	B11
240 RLU	B12
400 RLU	B13
480 RLU	B14
36200 RLU	B15
480 RLU	B16
560 RLU	B17
400 RLU	B18
5680 RLU	B19
320 RLU	B20
320 RLU	B21
320 RLU	B22
240 RLU	B23
480 RLU	B24
320 RLU	B25

Molecular target: extracellular domain of human CD137 on the surface of CHO-K1 cells (human, UniProt Q07011 24-186)
Experiment: flow cytometry on CHO-K1 cells with human CD137 ECD
Description: Cell surface binding was analyzed via flow cytometry. Cenyrins were prepared at a maximal concentration of 500 nM in the presence of 125 nM anti His-mIgG1 antibody and then serially diluted in PBS/1% FCS buffer. Samples were then applied to approx 100 000 CHO-Kl cells expressing the extracellular domain of human CD137 on their surface. Unbound Centyrin/Antibody complexes were washed away and bound FN3 domains were detected by the addition of goat anti mouse-FITC labeled antibody. Samples were then aquired by flow cytometry. Subsequently, Mean flurescence intensity was plotted against the log Centyrin concentration and EC50 values were calculated by nonlinear regression using GraphPad Prism.

EC50	Binder
18.7 nM	B26

Molecular target: unrelated Fc-fused recombinant protein
Experiment: ELISA, negative control Fc protein

ELISA Fc Control (RLU)	Binder
1440 RLU	B26

Source: patent publication US20220259289A1 (Janssen / Centocor, published 2022)
